Experimental data taken from article PMC11154664, “Characterization of Complex Proteoform Mixtures by Online Nanoflow Ion-Exchange Chromatography-Native Mass Spectrometry” (Analytical Chemistry, 2024).

Molecular target: the molecule itself
Experiment: native MS; online nanoflow strong cation exchange chromatography coupled to nESI native MS (nanoSCX-nMS); salt-mediated pH gradient from 50 mM ammonium acetate pH 5.0 to 250 mM ammonium acetate pH 8.5

B1: alcohol dehydrogenase (enzyme, UniProt P00330 1-348, looked up)
chain: MSIPETQKGVIFYESHGKLEYKDIPVPKPKANELLINVKYSGVCHTDLHAWHGDWPLPVKLPLVGGHEGAGVVVGMGENVKGWKIGDYAGIKWLNGSCMACEYCELGNESNCPHADLSGYTHDGSFQQYATADAVQAAHIPQGTDLAQVAPILCAGITVYKALKSANLMAGHWVAISGAAGGLGSLAVQYAKAMGYRVLGIDGGEGKEELFRSIGGEVFIDFTKEKDIVGAVLKATDGGAHGVINVSVSEAAIEASTRYVRANGTTVLVGMPAGAKCCSDVFNQVVKSISIVGSYVGNRADTREALDFFARGLVKSPIKVVGLSTLPEIYEKMEKGQIVGRYVVDTSK
notes: alcohol dehydrogenase (ADH), model oligomeric protein called a tetramer; also called ADH
With B1 the “stoichiometry N” value was 4.
